From PMC7069705

Molecular target: APC (full-length; APC-TMR when labeled) (Mus musculus, UniProt Q61315 1-2845)
Assay: single-molecule TIRF-M co-diffusion on microtubules

Sequence of APC (full-length; APC-TMR when labeled) (Q61315 whole entry, the tested form may be a part): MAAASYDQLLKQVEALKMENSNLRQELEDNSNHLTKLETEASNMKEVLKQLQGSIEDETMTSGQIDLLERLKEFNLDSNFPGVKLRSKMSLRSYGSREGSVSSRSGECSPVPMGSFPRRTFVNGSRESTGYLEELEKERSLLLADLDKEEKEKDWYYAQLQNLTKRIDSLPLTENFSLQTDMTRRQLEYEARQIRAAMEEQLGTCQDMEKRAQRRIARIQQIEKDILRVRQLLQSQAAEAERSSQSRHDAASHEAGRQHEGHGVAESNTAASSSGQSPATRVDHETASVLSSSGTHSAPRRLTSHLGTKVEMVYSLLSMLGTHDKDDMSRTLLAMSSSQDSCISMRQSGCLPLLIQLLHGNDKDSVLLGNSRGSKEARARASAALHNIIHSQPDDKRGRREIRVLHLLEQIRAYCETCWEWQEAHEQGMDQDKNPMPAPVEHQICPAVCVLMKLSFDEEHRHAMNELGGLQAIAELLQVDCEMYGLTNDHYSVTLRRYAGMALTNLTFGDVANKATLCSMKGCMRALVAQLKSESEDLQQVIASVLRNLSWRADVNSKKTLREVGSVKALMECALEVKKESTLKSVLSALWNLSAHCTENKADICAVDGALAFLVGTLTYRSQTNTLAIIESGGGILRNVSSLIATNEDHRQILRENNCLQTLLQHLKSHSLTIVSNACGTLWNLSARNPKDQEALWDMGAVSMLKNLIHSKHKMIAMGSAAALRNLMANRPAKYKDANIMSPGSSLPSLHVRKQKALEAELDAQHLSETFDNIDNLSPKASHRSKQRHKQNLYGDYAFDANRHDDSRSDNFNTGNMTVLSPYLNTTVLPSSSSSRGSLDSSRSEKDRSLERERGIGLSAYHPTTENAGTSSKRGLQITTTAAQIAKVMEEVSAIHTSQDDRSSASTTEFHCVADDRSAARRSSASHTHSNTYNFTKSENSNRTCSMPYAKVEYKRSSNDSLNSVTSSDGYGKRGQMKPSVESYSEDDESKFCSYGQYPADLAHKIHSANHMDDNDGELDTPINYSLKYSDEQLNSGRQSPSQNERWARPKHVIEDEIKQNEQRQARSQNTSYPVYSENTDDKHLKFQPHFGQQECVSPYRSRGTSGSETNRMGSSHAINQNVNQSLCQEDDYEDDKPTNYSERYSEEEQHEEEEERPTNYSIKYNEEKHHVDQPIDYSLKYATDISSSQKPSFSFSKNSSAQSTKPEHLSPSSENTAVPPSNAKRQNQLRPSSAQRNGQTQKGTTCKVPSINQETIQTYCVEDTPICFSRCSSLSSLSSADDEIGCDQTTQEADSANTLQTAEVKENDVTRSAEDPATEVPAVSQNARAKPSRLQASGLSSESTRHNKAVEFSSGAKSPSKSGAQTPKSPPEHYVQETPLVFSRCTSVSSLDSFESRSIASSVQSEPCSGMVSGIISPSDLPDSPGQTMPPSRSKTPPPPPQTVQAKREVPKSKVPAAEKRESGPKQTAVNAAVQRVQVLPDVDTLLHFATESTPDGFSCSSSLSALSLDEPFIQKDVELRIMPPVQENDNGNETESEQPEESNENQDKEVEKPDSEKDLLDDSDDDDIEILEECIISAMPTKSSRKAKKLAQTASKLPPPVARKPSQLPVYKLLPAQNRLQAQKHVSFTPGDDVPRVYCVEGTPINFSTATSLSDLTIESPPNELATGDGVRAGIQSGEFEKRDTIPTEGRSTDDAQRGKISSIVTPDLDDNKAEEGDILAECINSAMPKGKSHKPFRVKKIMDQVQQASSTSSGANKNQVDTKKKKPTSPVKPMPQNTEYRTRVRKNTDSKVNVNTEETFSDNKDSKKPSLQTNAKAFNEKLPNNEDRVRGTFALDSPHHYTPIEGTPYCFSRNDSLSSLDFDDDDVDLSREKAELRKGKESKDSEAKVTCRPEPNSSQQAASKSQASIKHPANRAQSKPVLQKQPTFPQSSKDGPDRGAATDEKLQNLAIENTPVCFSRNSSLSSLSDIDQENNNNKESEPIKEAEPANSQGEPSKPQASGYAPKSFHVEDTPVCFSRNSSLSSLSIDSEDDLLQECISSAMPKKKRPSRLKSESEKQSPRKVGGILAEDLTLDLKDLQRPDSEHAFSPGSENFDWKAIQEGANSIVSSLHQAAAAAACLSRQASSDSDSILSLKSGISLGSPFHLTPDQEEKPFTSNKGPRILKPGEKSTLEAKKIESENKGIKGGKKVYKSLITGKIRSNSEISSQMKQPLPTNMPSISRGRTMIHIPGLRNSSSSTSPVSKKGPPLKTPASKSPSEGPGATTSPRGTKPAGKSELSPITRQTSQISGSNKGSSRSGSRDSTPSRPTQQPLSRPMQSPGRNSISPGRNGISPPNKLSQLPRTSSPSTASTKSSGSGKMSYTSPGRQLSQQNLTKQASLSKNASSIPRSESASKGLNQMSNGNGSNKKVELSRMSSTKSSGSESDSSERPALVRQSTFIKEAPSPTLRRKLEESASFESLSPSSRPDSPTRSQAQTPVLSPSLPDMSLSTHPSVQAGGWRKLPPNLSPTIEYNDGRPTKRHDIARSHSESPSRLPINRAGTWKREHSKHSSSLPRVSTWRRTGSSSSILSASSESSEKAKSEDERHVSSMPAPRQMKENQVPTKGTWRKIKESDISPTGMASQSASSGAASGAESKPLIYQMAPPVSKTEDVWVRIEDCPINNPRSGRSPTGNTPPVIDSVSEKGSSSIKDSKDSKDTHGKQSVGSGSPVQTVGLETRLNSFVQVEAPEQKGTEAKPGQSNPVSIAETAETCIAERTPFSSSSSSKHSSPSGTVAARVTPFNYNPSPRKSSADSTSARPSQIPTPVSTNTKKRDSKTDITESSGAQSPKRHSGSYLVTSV

B1: β2Btubwt (ssRNA)
RNA: GUUCCCCAGGCCAAGCAGGUUAGGGAAAGCUGAGAUGAAAGGAGGGGGUGGGGGGGCUUAAUCUGUGAAAAUACCUUGGCAGUUGAA
Does B1 bind?
Result: binds
